From article doi:10.1101/2021.06.28.21259671

Legend:
[1] = molecular target: chimeric secretory component (CSC) of the polymeric immunoglobulin receptor (rabbit/human chimera); experiment: lateral flow assay
[2] = molecular target: chimeric secretory component (CSC) of the polymeric immunoglobulin receptor (rabbit/human chimera); experiment: SEC

Substance | limit of detection [1] [µg/mL] | stoichiometry N [2]
CB6-dIgA1 (dimeric IgA1 form of the SARS-CoV-2 specific monoclonal antibody CB6, with J chain) | 0.123 | 
CB6-dIgA2 (dimeric IgA2 form of the SARS-CoV-2 specific monoclonal antibody CB6, with J chain) | 0.128 | 
chimeric secretory component (CSC) of the polymeric immunoglobulin receptor |  | 2
